# Measured values published in patent US20130108636A1 (US Dept. of Health and Human Services, published 2013).
# Molecular target: T1, gp120Bal-CD4
# T1 construct: also called 120Bal-CD4 complex
# Assay: ELISA, OD 450 nm
row,Binder,EC50 (read off the curve)
1,"m36.4 (VHH, eAd, mutant of m36; also called m36.4 eAd) VHH: QVQLVQSGGGLVQPGGSLRLSCAASAFDFSDYEMSWVREAPGKGLEWIGEINDSGNTIYNPSLKSRVTISRDNSKNTLYLQMNTLRAEDTAIYYCAIYGGNSGGEYWGQGTLVTVSS",~1 nM
2,"m36.5 (VHH, eAd, mutant of m36 selected from a phage library) VHH: QVQLVQSGGGLVQPGGSLRLSCAASAFDFSDYEMSWVREAPGKGLEWIGEINDSGNTIYNPSLKSRVTISRDNSKNTLYLQMNTLSAEDTAIYYCAIYGGNSGGEYWGQGTLVTVSS",~1 nM
3,"m36.2 (VHH, eAd, mutant of m36 selected from a phage library) VHH: QVQLVQSGGGLIQPGGSLRLSCAASAFDFSDYEMSWVRQDPGKGLEWIGEINDRGNTIYNPSLKSRVTISRDNSKNTLYLQMNTLRAEDTAIYYCAIYGGNSGGEYWGQGTLVTVSS",~2 nM
4,"m36.1 (VHH, eAd, mutant of m36 selected from a phage library) VHH: QVQLVQSGGGLVQPGGSLRLSCAASTFDFSDYEMSWVREAPGKGLEWIGEINDSGNTIYNPSLKNRVTISRDNSKNTLYLQMNTLRAEDTAIYYCAIYGGNSGGEYWGQGTLVTVSS",~1 nM
